Reference: the Immune Epitope Database (IEDB)

Tests used:
HLA-A*02:03 = assay: IEDB peptide-MHC binding, cellular MHC/competitive/fluorescence; ≥ and ≤ were set here for values at or beyond the usual limits of such assays
HLA-A*68:02 [1] = assay: as above
HLA-A*02:06 = assay: as above
HLA-A*02:01 [2] = assay: as above
HLA-A*02:02 = assay: as above
HLA-A*02:01 [3] = assay: IEDB peptide-MHC binding, purified MHC/competitive/radioactivity; ≥ and ≤ were set here for values at or beyond the usual limits of such assays; conditions: source organism: Vaccinia virus WR
HLA-A*68:02 [4] = assay: as above; conditions: source organism: Vaccinia virus WR
[5] = source organism: Vaccinia virus WR
[6] = source organism: Influenza A virus
[7] = source organism: Mammarenavirus machupoense
[8] = source organism: Mammarenavirus brazilense

Sequence | IC50 (HLA-A*02:03; [5]) [µM] | IC50 (HLA-A*68:02 [1]; [5]) [µM] | IC50 (HLA-A*02:06; [5]) [µM] | IC50 (HLA-A*02:01 [2]; [5]) [µM] | IC50 (HLA-A*02:02; [5]) [µM] | also measured
SAEDNYLAKL | ≥ 70 | ≥ 70 | ≥ 70 | ≥ 70 | ≥ 70 | –
ATQFNFNGHT | 11.5 | 23.3 | 26.4 | 38.6 | 28.6 | –
AAFEDLRL | – | – | – | – | – | IC50 (HLA-A*02:03; [6]): 48.9 µM; IC50 (HLA-A*68:02 [1]; [6]): 59.8 µM; IC50 (HLA-A*02:06; [6]): 46.9 µM; IC50 (HLA-A*02:01 [2]; [6]): ≥ 70 µM; IC50 (HLA-A*02:02; [6]): 17.5 µM
DVEKEKFVAT | 54.8 | ≥ 70 | 69.8 | 30.2 | 37.5 | –
PAMSTYSDI | 20.6 | 69.8 | ≥ 70 | 16.1 | 18.3 | –
YNFSLSAAV | – | – | – | – | – | IC50 (HLA-A*02:03; [7]): ≥ 70 µM; IC50 (HLA-A*68:02 [1]; [7]): 29.7 µM; IC50 (HLA-A*02:06; [7]): ≥ 70 µM; IC50 (HLA-A*02:01 [2]; [7]): 7.51 µM; IC50 (HLA-A*02:02; [7]): 46.3 µM
YTLIYRQLT | 9.42 | 7.86 | 17.6 | 28.5 | 6.41 | –
SAAFEDLRLL | – | – | – | – | – | IC50 (HLA-A*02:03; [6]): 13.6 µM; IC50 (HLA-A*68:02 [1]; [6]): ≥ 70 µM; IC50 (HLA-A*02:06; [6]): 23.5 µM; IC50 (HLA-A*02:01 [2]; [6]): 42.7 µM; IC50 (HLA-A*02:02; [6]): 21.4 µM
TQLFKYVPSA | ≥ 70 | ≥ 70 | ≥ 70 | ≥ 70 | ≥ 70 | –
PLTGNNTITT | 29.5 | 49.3 | ≥ 70 | ≥ 70 | 7.67 | –
DVCKKNLDL | 8.02 | 40.6 | 16.3 | 19.5 | 25.4 | –
KIQLFSDFTI | ≥ 70 | ≥ 70 | ≥ 70 | ≥ 70 | ≥ 70 | –
TVPSERGL | – | – | – | – | – | IC50 (HLA-A*02:03; [6]): ≥ 70 µM; IC50 (HLA-A*68:02 [1]; [6]): 65 µM; IC50 (HLA-A*02:06; [6]): ≥ 70 µM; IC50 (HLA-A*02:01 [2]; [6]): 52.9 µM; IC50 (HLA-A*02:02; [6]): ≥ 70 µM
ATAILRKA | – | – | – | – | – | IC50 (HLA-A*02:03; [6]): 42.3 µM; IC50 (HLA-A*68:02 [1]; [6]): ≥ 70 µM; IC50 (HLA-A*02:06; [6]): ≥ 70 µM; IC50 (HLA-A*02:01 [2]; [6]): 52.9 µM; IC50 (HLA-A*02:02; [6]): 61.8 µM
TIDNIVTSLA | ≥ 70 | ≥ 70 | ≥ 70 | ≥ 70 | ≥ 70 | –
ITDQTVNICI | ≥ 70 | 51.2 | 10.4 | 7.2 | ≥ 70 | –
TVIKNNMI | – | – | – | – | – | IC50 (HLA-A*02:03; [6]): ≥ 70 µM; IC50 (HLA-A*68:02 [1]; [6]): ≥ 70 µM; IC50 (HLA-A*02:06; [6]): 67 µM; IC50 (HLA-A*02:01 [2]; [6]): ≥ 70 µM; IC50 (HLA-A*02:02; [6]): 36 µM
VIRHVDGKIL | 33.4 | ≥ 70 | ≥ 70 | ≥ 70 | ≥ 70 | –
RVTKRDESSI | 10.7 | 8.81 | 22.2 | 55.9 | 12.3 | –
LTPFEKEFT | 20.9 | ≥ 70 | ≥ 70 | 44.5 | 16.8 | –
PVIVPDIKL | 32.7 | 29.9 | 51.4 | 52.8 | 41.2 | –
CVRNLEELTT | 15.2 | 33.1 | 43 | 45.2 | 12.6 | –
TATKRIRMA | – | – | – | – | – | IC50 (HLA-A*02:03; [6]): 24.1 µM; IC50 (HLA-A*68:02 [1]; [6]): ≥ 70 µM; IC50 (HLA-A*02:06; [6]): 35.4 µM; IC50 (HLA-A*02:01 [2]; [6]): 34 µM; IC50 (HLA-A*02:02; [6]): 48.4 µM

Sequence | IC50 (HLA-A*02:03; [5]) [µM] | IC50 (HLA-A*68:02 [1]; [5]) [µM] | IC50 (HLA-A*02:06; [5]) [µM] | IC50 (HLA-A*02:01 [2]; [5]) [µM] | IC50 (HLA-A*02:02; [5]) [µM] | also measured
PVETLFGSYI | 11.8 | 7.16 | ≥ 70 | ≥ 70 | 13.7 | –
VVIVENDNVI | 10.2 | 22.5 | 10.8 | – | 14.7 | IC50 (HLA-A*02:01 [3]): 2.83 µM
DVKVLAARL | 10.7 | 7.95 | 10 | 12 | 6.23 | –
PTIEDDKIVT | 20.6 | ≥ 70 | ≥ 70 | ≥ 70 | 13.8 | –
ICFWSTLFFT | – | – | – | – | – | IC50 (HLA-A*02:03; [8]): 35.1 µM; IC50 (HLA-A*68:02 [1]; [8]): 47.6 µM; IC50 (HLA-A*02:06; [8]): 34.9 µM; IC50 (HLA-A*02:01 [2]; [8]): 11.9 µM; IC50 (HLA-A*02:02; [8]): 33.2 µM
AATKRYPGVM | 47.9 | ≥ 70 | 46.8 | 67.2 | 20.1 | –
PMIIGEPIIV | 8.84 | ≥ 70 | ≥ 70 | 26.3 | ≥ 70 | –
TVDVRNIVT | 13.1 | 5.98 | 53.6 | 10.5 | 13.4 | –
PAHLINKLL | 6.31 | 11.2 | 42.5 | 11.3 | 6.69 | –
LTGNNTITT | 5.62 | 8.24 | 8.69 | 11.2 | 5.75 | –
ELEKCTSEI | 56 | 24.6 | 57.8 | 24.8 | 21.1 | –
SIENKHQRRL | 21.1 | ≥ 70 | 53.6 | ≥ 70 | 17 | –
DMICCDSRIV | 6.08 | 13.3 | 18.9 | 34.7 | 11.3 | –
STQQNKLVI | 14.4 | 25.7 | ≥ 70 | 41.1 | 53 | –
YLEKANKI | – | – | – | – | – | IC50 (HLA-A*02:03; [6]): 38.3 µM; IC50 (HLA-A*68:02 [1]; [6]): ≥ 70 µM; IC50 (HLA-A*02:06; [6]): ≥ 70 µM; IC50 (HLA-A*02:01 [2]; [6]): 12.3 µM; IC50 (HLA-A*02:02; [6]): 8.22 µM
DAKRNSKSL | 49.7 | ≥ 70 | ≥ 70 | ≥ 70 | 13.7 | –
DLDKVYEIL | 26.3 | ≥ 70 | 53.6 | 29.7 | 19.6 | –
TIESAKTKI | 54.1 | 52.6 | 51.4 | 15.2 | 16.3 | –
EIDVSEVKT | ≥ 70 | 20 | ≥ 70 | ≥ 70 | 46 | –
DIVSDSKKIM | 57.2 | ≥ 70 | ≥ 70 | 64.6 | 25.1 | –
PTDMLKLFT | 47 | ≥ 70 | 69.8 | ≥ 70 | 29.1 | –
PAEMLASI | – | – | – | – | – | IC50 (HLA-A*02:03; [6]): ≥ 70 µM; IC50 (HLA-A*68:02 [1]; [6]): ≥ 70 µM; IC50 (HLA-A*02:06; [6]): ≥ 70 µM; IC50 (HLA-A*02:01 [2]; [6]): ≥ 70 µM; IC50 (HLA-A*02:02; [6]): ≥ 70 µM
SILNNPVDT | 30.6 | 46.8 | 14.2 | – | 47.1 | IC50 (HLA-A*02:01 [3]): 4.63 µM

Sequence | IC50 (HLA-A*02:03; [5]) [µM] | IC50 (HLA-A*68:02 [1]; [5]) [µM] | IC50 (HLA-A*02:06; [5]) [µM] | IC50 (HLA-A*02:01 [2]; [5]) [µM] | IC50 (HLA-A*02:02; [5]) [µM] | also measured
SITPNNLNKI | ≥ 70 | ≥ 70 | ≥ 70 | ≥ 70 | 14.9 | –
IAVFDSKLI | 11.9 | 6.79 | 11.9 | – | 7.85 | IC50 (HLA-A*02:01 [3]): 3.85 µM
RISSSLDQT | 12.8 | 67.5 | 27.8 | 63.6 | 6.79 | –
QARQMVQAMRA | – | – | – | – | – | IC50 (HLA-A*02:03; [6]): ≥ 70 µM; IC50 (HLA-A*68:02 [1]; [6]): 20 µM; IC50 (HLA-A*02:06; [6]): 55.2 µM; IC50 (HLA-A*02:01 [2]; [6]): ≥ 70 µM; IC50 (HLA-A*02:02; [6]): 24.9 µM
LTNKKYRCMA | 5.4 | 16.6 | ≥ 70 | ≥ 70 | 34.8 | –
VLKAMHDKKI | 33.9 | ≥ 70 | ≥ 70 | ≥ 70 | 48.9 | –
YVKNGTKGKL | 7.17 | 32.6 | 28.5 | 40.6 | 5.72 | –
VATTHSWI | – | – | – | – | – | IC50 (HLA-A*02:03; [6]): 62.3 µM; IC50 (HLA-A*68:02 [1]; [6]): 56.2 µM; IC50 (HLA-A*02:06; [6]): ≥ 70 µM; IC50 (HLA-A*02:01 [2]; [6]): ≥ 70 µM; IC50 (HLA-A*02:02; [6]): ≥ 70 µM
DVGCLLTDTI | 15.6 | 27.4 | 10 | 6.84 | 10.7 | –
DMLLNVQTL | 5.07 | 5.05 | 13.4 | – | 7.4 | IC50 (HLA-A*02:01 [3]): 3.15 µM
ALSYSTGA | – | – | – | – | – | IC50 (HLA-A*02:03; [6]): 25.8 µM; IC50 (HLA-A*68:02 [1]; [6]): ≥ 70 µM; IC50 (HLA-A*02:06; [6]): ≥ 70 µM; IC50 (HLA-A*02:01 [2]; [6]): ≥ 70 µM; IC50 (HLA-A*02:02; [6]): ≥ 70 µM
LAEYIRHRNT | 14 | 52.4 | ≥ 70 | ≥ 70 | 36.1 | –
DLAIKQYGDI | 33.3 | 7.72 | 46.8 | ≥ 70 | 17.9 | –
NVDVGCLLT | 14 | ≥ 70 | 64.9 | 47.3 | 9.85 | –
QQNNSFIIST | 5.04 | 8.51 | 5.71 | – | 7 | IC50 (HLA-A*02:01 [3]): 1.23 µM
IMECSRMLDT | 7.2 | ≥ 70 | ≥ 70 | – | 5.24 | IC50 (HLA-A*02:01 [3]): 3.1 µM
PLTLLIKTL | 6.15 | 6.22 | 8.1 | – | 5.27 | IC50 (HLA-A*02:01 [3]): 4.78 µM
LLDEPLSPDT | 10.1 | ≥ 70 | 7.84 | – | 8.51 | IC50 (HLA-A*02:01 [3]): 3.6 µM
QTLISLNSM | 39.3 | 19.4 | 7.5 | – | 19.4 | IC50 (HLA-A*02:01 [3]): 4.82 µM
RASTTENAA | 66.7 | – | 12.1 | ≥ 70 | 26.7 | IC50 (HLA-A*68:02 [4]): 0.314 µM
ETVKMGAFM | 7.43 | – | 40.2 | ≥ 70 | 15 | IC50 (HLA-A*68:02 [4]): 0.081 µM
ATCALVSDCA | 23.4 | – | 9.14 | 55.8 | 34.7 | IC50 (HLA-A*68:02 [4]): 0.018 µM
